These are literature values, as cited in paper PMC2799686.

The target in the data set is DnaK (Escherichia coli) (UniProt P0A6Y8). Nature of the data set: competition.
Sequence of DnaK (Escherichia coli) (P0A6Y8 2-638): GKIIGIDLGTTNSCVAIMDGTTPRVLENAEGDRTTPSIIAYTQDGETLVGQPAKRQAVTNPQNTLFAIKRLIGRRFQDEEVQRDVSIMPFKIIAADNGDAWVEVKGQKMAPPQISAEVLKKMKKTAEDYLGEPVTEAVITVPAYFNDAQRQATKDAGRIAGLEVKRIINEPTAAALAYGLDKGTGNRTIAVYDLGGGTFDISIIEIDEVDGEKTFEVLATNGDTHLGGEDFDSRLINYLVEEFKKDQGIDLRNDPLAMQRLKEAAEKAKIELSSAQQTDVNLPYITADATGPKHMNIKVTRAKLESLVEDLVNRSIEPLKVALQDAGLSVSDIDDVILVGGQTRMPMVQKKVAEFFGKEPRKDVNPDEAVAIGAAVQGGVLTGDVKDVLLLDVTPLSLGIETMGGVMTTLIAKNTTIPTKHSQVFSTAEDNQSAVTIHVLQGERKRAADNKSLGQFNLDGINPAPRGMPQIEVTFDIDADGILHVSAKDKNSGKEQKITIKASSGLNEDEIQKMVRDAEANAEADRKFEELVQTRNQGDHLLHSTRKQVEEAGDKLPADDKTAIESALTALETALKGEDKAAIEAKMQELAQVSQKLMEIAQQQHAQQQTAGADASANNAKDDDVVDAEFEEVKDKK

Sequence of pyrrhocoricin (P37362 whole entry): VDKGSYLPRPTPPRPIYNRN

On to pyrrhocoricin (from UniProt P37362), for which the Kd – broadly, the constant that tells how readily two partners part at equilibrium – was 50 µM.
